Reference: article PMC7261172, “Peptides containing the PCNA interacting motif APIM bind to the β-clamp and inhibit bacterial growth and mutagenesis” (Nucleic Acids Research, 2020)

Legend:
[1] = biological target: E. coli β-clamp, wild type, His-tagged (UniProt P0A988); assay: SPR; conditions: peak response at the end of the last (highest) peptide injection, about 1130 s; concentrations not given; parent: est. 140; read off a plot
[2] = biological target: β-clamp (Escherichia coli) (UniProt P0A988); conditions: cited from earlier work

Substance | response [1] | Kd [2]
Octamer APIM peptide RWLVK (Ac-MDRWLVKW) MDRALVKW (mutated APIM; W to A at peptide position 4 of MDRWLVKW) | 8 RU | 
Pol III alpha C-terminal peptide |  | 2000 nM
